Data published in the nanobody polyreactivity screen of Harvey et al. (2022).

Assay: yeast display, Sf9 membrane polyspecificity reagent, FACS + sequencing; frameworks hold sequencing errors
In short: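 A nanobody's polyreactivity label depends on the gate it was sorted from. Yeast display cells were stained with 10% biotinylated, detergent-solubilized Sf9 membrane reagent for 1 hour at 4 °C, enriched on streptavidin microbeads and sorted by FACS. The low and high (top ~1%) gates were set on anti-HA fluorescence for expression and streptavidin fluorescence for reagent binding.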

| Sequence | polyreactivity (PSR sort gate) |
| --- | --- |
| QVQLVESGGGLVQAGGSLRLSCAASGSIFYLYAMGWYRQAPGKERELVADINWNGGTYYADSVKGRFTISRDNAKNTVYLQMNSLKPEDTAVYYCAAYYYPYEYDYWGQGTQVTVSS | high polyreactivity |
| QVQLVESGGGLVQAGGSLRLSCAASGSTFDVYAMGWYRQAPGKERELVAALTSGGTTNYADSVKGRFTISRDNAKNTVYLQMNSLKPEDTAVSYCNARLTLRSYDYWGQGTLVTVSS | low polyreactivity |
| QVQLVESGVGLVQAGGSLRLSCAASGRIFYRNAMGWYRQAPGKEREFVAAITFRSGGTYYADSVKGRFTISRDNAKNTVYLQMNSLKPEDTAVYYCATRYLGASRYGYWGQGTQVTVSS | high polyreactivity |
| QVQLVESGGGLVQAGGSLRLTCAASGRIFSANAMGWYRKAPGKERELVATISTGGGRTYYADSVKGRFTISRDYAKNTVYLQMNSLKAEDTAVYYCNDTGNYARFLYYSWCQGTQVTVSS | high polyreactivity |
| QVQLVESGGGLVQAGGSLRLSCAASGSIFVYYAMGWYRQAPGKERELVAAISSRGGRTYYADSVKGRFTISRDNAKNTVYLQMNSLKPEDTAVYYCAAVSSRLWLYDYWGQGTQVTVSS | high polyreactivity |
| QVQLVESGGGLVQAGGSLRLSCAASGFIFYAYAMGWYRQAPGKERELVAAISYSGGSTYYADSVKGRFTISRDNAKNTVYLQMNSLKPEDTAVYYCNTVSYGYSSKLYDYWGQGTLVTVSS | high polyreactivity |
| QVQLVESGGGLVQAGGSLRLSCAASGLIFRYYAKGWYRQGPGNEMELVAVISRRGDSTYYADSVKVRFTISRDNAKNTVYLQMISLKPEDTAVFYCAAEYFKRYKSYEYWGQGTQVTVSS | high polyreactivity |
| QVQLVESGGGLVQAGGSLRLSCAASGRTFYFNAMGWYRQAPGKERELVAGISGDGSTNYADSVKGRFTISRDNAKNTVYLQMNSLKPEDTAVYYCAARIRPGYRTWYYSWGQGTQVTVSS | low polyreactivity |
| QVQLVESRGGLVQAGGSLRLSCPASGYIFYRNAMGWYRQEPGKERELVAAITYTGGRTYYPDSVKGRFTISRDNAKNTVYLQMNSLNPEDTAVYYCNADGRVFVVRPYYDYEYWGQGTQVTVSS | low polyreactivity |
| QVQLEESGGGLVQAGGSLRLICAASGSIFDSNSMGWYRQAPGKVRELVAGISRGGGSTYYADSVKGRFTISRDNAKNTVYLQMNSLKPEDTAVYYCNVLTYRWLYARRYEYWGQGTQVTVSS | high polyreactivity |
| QVQLVESGGGIVQAGGSLRLSCAASGRTFAYYTMGWYRQAPGKERELVARISNRGTNTYYADSVKGRFTISRDNAKNTVYLQMNSLKPEDTAVYYCAKYYYTSIVGYDSWGQGTQVTVSS | low polyreactivity |
| QVQLVESAGGLVQAGGSLRLSCAASGRIFTNNAMGWYRQAPGKERELVAAISRSGGRTYYADTVKGRFTISRDNAKNTVYVQMNSLKPEDTAVSYCAALGPYGSARRKYGYWGQGTQVTVSS | high polyreactivity |
| QVQLVESGGGLVQAGGSLRLSCAASGSILNNYAMGWYRQAPGKERELVAAISSSGGTNYADSVKGRFTISRDNAKNTVYLPMNSLKPVDTAVYYCNADVLDGGYDYWGQGTQVTVSS | low polyreactivity |
| QVQLEESGGGLVQAGGSLRLSCAASGFTFSGYDMGWYRQAPGKERELVAGISSGGVSTTYADSVKGRFTISRDNAKNTVYLQMNSLKPEDTAVYYCNAEWTSFDWGQGTQVTVSS | low polyreactivity |
| QVQLVESGGGLVQAGGSLRLSCAASVRIYGSNVMGWYRQAPGKERELVASISSGGTTYYADSVKGRFTISRDNAKNTVYLQMNSLKPEDTAVYYCAKQWTRIYQYRWYPGTRTGYDYWGQGTQVTVSS | high polyreactivity |
| QVQLVESGGGLVQAGGSLRLSCAASGRTIGAYAMGWYRQAPGKEREFVAAITFGGGPTYYADSVKGRFTISRDNAKNTVYLQMNSLKPEDTAVYYCAKRIDLSLPYARYDYWGQVTQVTVSS | low polyreactivity |
| QDQLVESGGGLVQAGGSLRLSCAASGRIFGYYTAMGWYRQTPAKEREMVASITKSGGSTYYSDSVKGRFTITRDNAKNTVYLQKNCLKPEDTAVYYCAAAFNRYGTTSYWYRHYYWGQGTQVTVSS | high polyreactivity |
| QVQLVESGGGLVQAGGSIRLSCAASGFIIKVYAMGWYRQAPGKERELVAAITWSGGSTYYADSVKGRFTISRDNAKNNVYLQMNSLKPEDTAVYYCNTDAYRYPEYDYWGQGTQVTVSS | low polyreactivity |
| QVRLVESGGGLVQAGGRLRLSCAASGRIFSSYSMGWYRQAPGKERELVASISWSGVRTRYADSVKGRFTISRDNAKNTVYLQLNSLKPEDTAVYYCAAVVPYYYRSPSNHMGYWGQGTQVTVSS | high polyreactivity |
| QVQHVESAGGLVQAGGSLPLRCAASGSTFSPNALGGYSHAHGKERELVARITRSGSRTSYADSLKGRFTISRDNAKNPVYFQMNSLKPEDTAVYYCAAEGPKQYDYWGQGTHVTVSS | low polyreactivity |
| QVQLVESGGGLVQAGGSLRLSCAASGSTFGANAMGLYRQAPGKEREFVAAISRSGVRTYYADSVKGRFTISRDNAQNTVYLQMNSLKPEDTAVYYCAADGYWWTYTRYDYWGQGTQVTVSS | low polyreactivity |
| QVQLVESGGGLVQAGGSLRLSCAASGFIFDGNAMGWYRQAPGKERELLAAISWDGGTYYADSVKGRFTISRDNAKNTVYLQMNSLKPEDTAVYYCNKPYGAETAHREFDYWGQGTQVTVSS | low polyreactivity |

| Sequence | polyreactivity (PSR sort gate) |
| --- | --- |
| QVQLVESGGVLVQAGGSLRLSCAASGSTFKPYAMGWYRQAPGKEREFVAANSRGTRTYADSVKGRFTISRDNAKNTVSLPMNSLKPEDTAVYYCAAEWSWIFGYHYEYDYGGQGTQVTVSS | low polyreactivity |
| QVQLVESGRGLVLAGGSLRLSCAASGRIFRVNAMGWYRQAPGKERELVAAISRGGNTYYADSVKGRFTISRDNEKNTVSLQMNSLKPEDTAVYYCAASRSWPRMDYWGQGTQVSVSS | high polyreactivity |
| QVQLVESGGGLVQAGGSLRLSCAASGFTFPIYAMGWYRQAPGKEREFVAAITRSGVSTYYADSVKGRFTISRDNAKNTVYLQMNSLKPEDTAVYYCAARYKGRAFWMDYWGQGTQVTVSS | high polyreactivity |
| QVQLVESGGGLVQAGGSLRLSCAASGITFEGYAMGWFRPAPGKERELVAAIRSSGTSTYYADSVKGRFTISRDNAKTTVYLQMNSQKPVDTAVYYCNRARSSSRYDYWGQGTQVTVSS | low polyreactivity |
| QVQLVESGGGLVQAGGSLRLSCAASGIIFRYYAMGWYRQAPGKERELVAVITRSGGSTYADSVKGRFTISRDNAKNTVYLQMNSLKPEDTAVYYCAAQWYLGYATRWRGGYWGQGTQVTVSS | high polyreactivity |
| QVQLVESGGGLVQAGGSLRLSCAASGRTFKSYAMGWYRQAPGKERELVAAISKRGGSTYYADSVKGRFTISRDNAKNTVYLQMNSLKPEDTAVYYCAADARYRSYSLLVRPGRYYYWGQGTQVTVSS | high polyreactivity |
| QVQLVESGGGLVQAGGSLRLSCAASGSTFYANAMGWYRQAPGKEREFVADITISGGRTYYADSVKGRFTISRDNAKNTVYLQMNSLKPEDTAVYYWNTRGIFFQSQTHDYWGQGTQVTVSS | low polyreactivity |
| QVQLVESGGGLVQAGGSLRLSCAASGSTFTTNVMGWYRQAPGKERELVAAISWSSGSTYYADSVKGRFTISRDNAKNTVSLPMNSLKPEDTAVYYCAARQVIFYPYSRYYYWGQGTQVTVSS | high polyreactivity |
| QVHLVQTGGGLVQAGGSLRLSCAASGRIFRTNGMGWYRQAPGKERELVAAISSGDSTYYADSVKVRFTISRDNAKNTVYLQMNSLKPEDTAVYYCAADFGRKGGPGYDYWGQGTQVTVSS | low polyreactivity |
| QVQLVESGGGLVQAGGSLRLSCAASGRTFYYYAMGWYRQAPGKERELVAAISWSGGRTYYADSVKGRFTISRDNAKNTVYLQMNSLKPEDTAVYYCAASSTGYGGSTYYYWGQGTQVTVSS | low polyreactivity |
| QVQLVESGGGLVQAGASLRLSCAASGSIFRVYAMGWYRQAPGKERELVATIDTSTDSTYYADSVKGRFTISRDNAKNTVYIQMNSLKPEDTAVYYCNARGTYARYFQYDYSGQGTQVTVSS | low polyreactivity |
| HVQLVESGGGLVHAGGSLRLSCAASGSILPKYAMGWYRQEPGKQRLLVATITWSGSSTYYADSVKGRFTISRDNAQNTVYLQMNSLKPEDTAVYYCAATGWSSFYYRFEYWGQGTQVTVSS | low polyreactivity |
| QVQLVESGGGLVQAGGSLRLSCAASGRIFGIYAMGWYRQAPGKERELVAAISYSGGSTYYADSVKGRFTISRDNAKNTVYLQMNSMKPEDTAVYYCNADYYASYYPYYSIRLDYWGQGTQVTVSS | low polyreactivity |
| QVQLVESGGGLVQAGGSLRLSCAASGSTFVSYAMGWYRQAPGKEREMVASISSGDSTYADSVKGRFTISRDNAKNTVYLQMNSLKREDTAVYYCNVGNEGSYGFPVTYDYWGQGSQVTVSS | low polyreactivity |
| QGQLVESGGGLVHAGGSLRLSCAASGSIFTGNAMGWYIQAPGKEREMVAAITGRGGNTYYADSVKGRYTISRDNAKNTVYLQMMSLKPEETAGYYCAKVFFHTPIVPEYDYWGQGSQVTVSS | low polyreactivity |
| QVQLVESGGGLVQAGCSLRLSCAASGRIYRRYAMGWYRQAPGKERELVAAISSRGGRTYYADSVKGRITISRDNAMNTVYLQMNSLKQEDTAVYYCAARPAGYGHYKYYYWGQGTQVTVSS | high polyreactivity |
| QVQLVESGGGLVQAGGSLRLSCAASGFIFERYAMGWYRKAPGKERELVAGIYSGGSTYYADSVKGRFTISRDNAKNTVYLQMNSLKPEDTAVYYCAAFRRQHIIYNYWGQGTQVTVSS | high polyreactivity |
| QVQLQESGGGLVQAGGSLRLSCAASGSIFVSVTMGWYRQAPGKERELVASIGRGSTTNHADSVKGRFTISRDNAKNIVYLLMNSLKPEDTEVYYCAALESYGKYHGYWGQGTQVTVSS | low polyreactivity |
| QDHLVESGRGLVQAGGSLRLSCAASGSIFPSYAMVWNRQAPGKERDLVDSITTSGGSTYYADSVKGRFTISRDNAKNTVYLQMNSLKPEDTAVYYCNARRYYYSWGREGGYWGQGTQVTVSS | low polyreactivity |
| QVHLVESGGGLVQAGGSLRLSCAASGITFTRYNMGWYRQAPGKERELVASIRRSGSTNYADSVKGRFTISRDNAKNTVYLQMNSLKPEDTAVFYCAAVNYGYPKPYDYWGQGTQVTVSS | high polyreactivity |
| QVQLVESGGGLVQAGGSLRLSCAASGSIFGYYAMGWYRQAPGKERELVAAISYSGGSTYYADSVKGRFTISRDNAKNTVYVQMNSLKPEDTAVYYCAARYASTPYARFGYWGQGSQVTVSS | high polyreactivity |
